The supplement of paper PMC7877785
± gives the uncertainty stated by the source.

Test: self-splicing fitness, log relative to wild type (ln ratio); higher = more splicing; Tetrahymena group I intron in knt gene, E. coli kanamycin selection, DiMSum; sequences stand for … in CUCUCU…GGAGGGAAAAGUUAUCAGGCAUGCACCUGGUAGCUAGUCUUUAAACCAAUAGAUUGCAUCGGUUUAAAAGGCAAGACCGUCAAAUUGCGGGAAAGGGGUCAACAGCCGUUCAGUACCAAGUCUCAGGGGAAACUUUGAGAUGGCCUUGCAAAGGGUAUGGUAAUAAGCUGACGGACAUGGUCCUAACCACGCAGCCAAGUCCUAAGUCAACAGAUCUUCUGUUGAUAUGGAUGCAGUUCACAGACUAAAUGUCGGUCGGGGAAGAUGUAUUCUUCUCAUAAGAUAUAGUCGGACCUCUCCUUAAUGGGAGCUAGCGGAUGAAGUGAUGCAACACUGGAGCCGCUGGGAACUAAUUUGUAUGCGAAAGUAUAUUGAUUAGUUUUGGAGUACUCGUGGUCG
In short: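 DiMSum derived fitness as the error-weighted combination of fold changes across replicates, kanamycin versus no kanamycin, normalised to wild type. E. coli BL21(DE3) held the library, which randomised all eight P1ex-region intron nucleotides within the knt kanamycin-resistance gene on pET-22b(+). Six replicate transformations grew overnight at 37°C or 30°C on LB agar with or without 25 μg/mL kanamycin, also containing 100 μg/mL carbenicillin, 50 μM IPTG and 0.2% rhamnose, and pooled colonies were amplicon-sequenced on an Illumina HiSeq 2500.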

| Sequence | self-splicing fitness (ln) (30 °C) | self-splicing fitness (ln) (37 °C) |
| --- | --- | --- |
| AUACAGCAAUAUUACGCCGA | -1.98 ± 0.18 | -1.51 ± 0.19 |
| AUACAGCAAUAUUACGCCGU | -1.34 ± 0.099 | -0.0561 ± 0.1 |
| AUACAGCAAUAUUACGCUAG | -1.61 ± 0.079 | -1.23 ± 0.096 |
| AUACAGCAAUAUUACGCUCC | -1.47 ± 0.16 | -0.769 ± 0.21 |
| AUACAGCAAUAUUACGGGCA | -0.996 ± 0.099 | -0.765 ± 0.1 |
| AUACAGCAAUAUUACGGUGA | -0.847 ± 0.063 | 0.283 ± 0.077 |
| AUACAGCAAUAUUACGGUUU | -0.703 ± 0.048 | 0.226 ± 0.059 |
| AUACAGCAAUAUUACGUAAU | -1.43 ± 0.085 | -0.584 ± 0.12 |
| AUACAGCAAUAUUACGUAUC | -4.19 ± 0.21 | -2.6 ± 0.17 |
| AUACAGCAAUAUUACGUGAA | -2.19 ± 0.077 | -1.08 ± 0.076 |
| AUACAGCAAUAUUACGUGCG | -0.886 ± 0.081 | -0.3 ± 0.091 |
| AUACAGCAAUAUUACGUGGC | -3.22 ± 0.12 | -2.39 ± 0.15 |
| AUAGAGCAAUAUUACGAACG | -2.4 ± 0.21 | -0.83 ± 0.19 |
| AUAGAGCAAUAUUACGAACU | -0.774 ± 0.13 | 0.227 ± 0.18 |
| AUAGAGCAAUAUUACGAAUA | -4.03 ± 0.47 | -2.1 ± 0.29 |
| AUAGAGCAAUAUUACGACGA | -0.935 ± 0.093 | -0.479 ± 0.13 |
| AUAGAGCAAUAUUACGACUG | -2.11 ± 0.13 | -0.786 ± 0.18 |
| AUAGAGCAAUAUUACGCAAG | -2.97 ± 0.2 | -1.24 ± 0.22 |
| AUAGAGCAAUAUUACGCUUC | -2.52 ± 0.24 | -1.47 ± 0.25 |
| AUAGAGCAAUAUUACGGGGU | -3.46 ± 0.21 | -3.53 ± 0.23 |
| AUAGAGCAAUAUUACGGUCC | -2.61 ± 0.38 | – |
| AUAGAGCAAUAUUACGGUGG | -1.24 ± 0.26 | – |
| AUAGAGCAAUAUUACGUAAG | -1.94 ± 0.22 | -1.34 ± 0.25 |
| AUAGAGCAAUAUUACGUAUA | -2.1 ± 0.19 | -0.371 ± 0.21 |

| Sequence | self-splicing fitness (ln) (30 °C) | self-splicing fitness (ln) (37 °C) |
| --- | --- | --- |
| AUAGAGCAAUAUUACGUCGA | -2.82 ± 0.19 | -1.04 ± 0.17 |
| AUAGAGCAAUAUUACGUCUC | -0.924 ± 0.15 | -0.745 ± 0.16 |
| AUAGAGCAAUAUUACGUUAU | -0.975 ± 0.089 | -0.177 ± 0.11 |
| AUAGAGCAAUAUUACGUUGC | -2.95 ± 0.2 | -2.05 ± 0.26 |
| AUAUAGCAAUAUUACGAAAC | -2.85 ± 0.29 | -2.03 ± 0.34 |
| AUAUAGCAAUAUUACGACUA | -0.8 ± 0.3 | -0.351 ± 0.29 |
| AUAUAGCAAUAUUACGAGCU | -2.13 ± 0.1 | -1.11 ± 0.1 |
| AUAUAGCAAUAUUACGAGGA | – | -2.44 ± 0.38 |
| AUAUAGCAAUAUUACGAGGU | -3.66 ± 0.26 | -1.44 ± 0.15 |
| AUAUAGCAAUAUUACGCAAU | -1.49 ± 0.17 | -0.77 ± 0.22 |
| AUAUAGCAAUAUUACGCAGG | -3.74 ± 0.31 | -1.69 ± 0.23 |
| AUAUAGCAAUAUUACGCCGC | -2.58 ± 0.49 | – |
| AUAUAGCAAUAUUACGCCGG | -3.65 ± 0.37 | -0.796 ± 0.3 |
| AUAUAGCAAUAUUACGCCUA | -0.306 ± 0.17 | -0.0941 ± 0.12 |
| AUAUAGCAAUAUUACGCCUG | -2.24 ± 0.23 | -1.6 ± 0.24 |
| AUAUAGCAAUAUUACGCGCA | -0.342 ± 0.15 | -0.724 ± 0.14 |
| AUAUAGCAAUAUUACGGAUG | -3.03 ± 0.25 | -2.15 ± 0.28 |
| AUAUAGCAAUAUUACGGCAA | -0.751 ± 0.18 | -0.989 ± 0.19 |
| AUAUAGCAAUAUUACGGCUG | -0.816 ± 0.14 | 0.663 ± 0.19 |
| AUAUAGCAAUAUUACGGGCC | -2.81 ± 0.3 | -2.86 ± 0.43 |
| AUAUAGCAAUAUUACGGGUU | -3.43 ± 0.14 | -2.51 ± 0.14 |
| AUAUAGCAAUAUUACGGUAU | -3.75 ± 0.32 | -1.45 ± 0.2 |
| AUAUAGCAAUAUUACGGUGU | -2.03 ± 0.16 | -1.38 ± 0.17 |
| AUAUAGCAAUAUUACGUCAU | -2.43 ± 0.14 | -1.15 ± 0.14 |

| Sequence | self-splicing fitness (ln) (30 °C) | self-splicing fitness (ln) (37 °C) |
| --- | --- | --- |
| AUAUAGCAAUAUUACGUUUG | -2.71 ± 0.23 | -2.21 ± 0.26 |
| AUCAAGCAAUAUUACGAAAA | -2.84 ± 0.36 | -2.03 ± 0.27 |
| AUCAAGCAAUAUUACGAAUA | -2.36 ± 0.21 | -1.44 ± 0.17 |
| AUCAAGCAAUAUUACGACAU | 0.105 ± 0.011 | 0.377 ± 0.032 |
| AUCAAGCAAUAUUACGACCC | -1.34 ± 0.17 | -0.0224 ± 0.3 |
| AUCAAGCAAUAUUACGACUG | -1.59 ± 0.11 | -1.27 ± 0.13 |
| AUCAAGCAAUAUUACGAGAC | -3.01 ± 0.3 | -1.87 ± 0.19 |
| AUCAAGCAAUAUUACGAUCU | -1.37 ± 0.1 | -0.575 ± 0.12 |
| AUCAAGCAAUAUUACGAUUA | -1.28 ± 0.11 | -0.622 ± 0.13 |
| AUCAAGCAAUAUUACGCAAC | -2.61 ± 0.14 | -2.37 ± 0.22 |
| AUCAAGCAAUAUUACGCGUC | -3.45 ± 0.23 | -1.41 ± 0.16 |
| AUCAAGCAAUAUUACGCUCC | -0.122 ± 0.16 | -1.04 ± 0.17 |
| AUCAAGCAAUAUUACGCUUC | – | -2.01 ± 0.46 |
| AUCAAGCAAUAUUACGGAUU | -3.31 ± 0.17 | -1.2 ± 0.14 |
| AUCAAGCAAUAUUACGGCAA | -0.819 ± 0.088 | -0.213 ± 0.097 |
| AUCAAGCAAUAUUACGGCAC | -1.67 ± 0.1 | -0.0454 ± 0.16 |
| AUCAAGCAAUAUUACGGGAC | -2.23 ± 0.081 | -1.11 ± 0.1 |
| AUCAAGCAAUAUUACGUACA | -1.21 ± 0.1 | -0.544 ± 0.12 |
| AUCAAGCAAUAUUACGUACC | -0.82 ± 0.12 | -0.953 ± 0.17 |
| AUCAAGCAAUAUUACGUACU | -0.173 ± 0.057 | 0.183 ± 0.066 |
| AUCAAGCAAUAUUACGUAGC | -4.82 ± 0.45 | -2.1 ± 0.31 |
| AUCAAGCAAUAUUACGUCCU | -0.37 ± 0.088 | 0.533 ± 0.12 |
| AUCAAGCAAUAUUACGUGUA | -2.39 ± 0.14 | -1.42 ± 0.12 |
| AUCAAGCAAUAUUACGUGUC | -3.9 ± 0.15 | -2.6 ± 0.16 |

| Sequence | self-splicing fitness (ln) (30 °C) | self-splicing fitness (ln) (37 °C) |
| --- | --- | --- |
| AUCAAGCAAUAUUACGUUGC | -3.84 ± 0.18 | -2 ± 0.15 |
| AUCCAGCAAUAUUACGAAUC | -2.04 ± 0.15 | -1.87 ± 0.22 |
| AUCCAGCAAUAUUACGACUU | 0.167 ± 0.074 | 0.32 ± 0.086 |
| AUCCAGCAAUAUUACGAGAU | -3.77 ± 0.2 | -2.22 ± 0.19 |
| AUCCAGCAAUAUUACGAGGU | -3.37 ± 0.23 | -2.65 ± 0.22 |
| AUCCAGCAAUAUUACGAUAC | -2.91 ± 0.23 | -0.914 ± 0.15 |
| AUCCAGCAAUAUUACGAUAG | -2.71 ± 0.25 | -2.84 ± 0.31 |
| AUCCAGCAAUAUUACGAUCC | -1.43 ± 0.21 | -0.865 ± 0.21 |
| AUCCAGCAAUAUUACGCCCU | -0.182 ± 0.15 | -0.00746 ± 0.21 |
| AUCCAGCAAUAUUACGCGGC | -2.86 ± 0.18 | -4.06 ± 0.24 |
| AUCCAGCAAUAUUACGCGUG | -2.3 ± 0.11 | -1.72 ± 0.11 |
| AUCCAGCAAUAUUACGGAAG | -1.1 ± 0.11 | -0.947 ± 0.14 |
| AUCCAGCAAUAUUACGGCCU | -0.115 ± 0.065 | 0.0854 ± 0.081 |
| AUCCAGCAAUAUUACGGGGA | -1.4 ± 0.11 | -1.71 ± 0.14 |
| AUCCAGCAAUAUUACGUACC | -2 ± 0.17 | -0.552 ± 0.32 |
| AUCCAGCAAUAUUACGUACG | -1.7 ± 0.11 | -0.813 ± 0.19 |
| AUCCAGCAAUAUUACGUCAU | -0.725 ± 0.041 | -0.313 ± 0.057 |
| AUCCAGCAAUAUUACGUCGC | -3.25 ± 0.24 | -2.08 ± 0.19 |
| AUCCAGCAAUAUUACGUGAG | -0.052 ± 0.045 | 0.237 ± 0.073 |
| AUCCAGCAAUAUUACGUGGU | -3.14 ± 0.12 | -2.9 ± 0.15 |
| AUCCAGCAAUAUUACGUUCA | -1.02 ± 0.068 | -0.265 ± 0.072 |
| AUCCAGCAAUAUUACGUUUA | -1.81 ± 0.076 | -1.01 ± 0.081 |
| AUCGAGCAAUAUUACGAAAA | -3.6 ± 0.39 | -2.1 ± 0.32 |
| AUCGAGCAAUAUUACGAACA | -2.91 ± 0.24 | -1.27 ± 0.2 |
